Two molecules from patent publication US20130137748A1 (ONCOTHERAPY SCIENCE, published 2013) can be followed below.

Data set [1] deals with T1, 3×FLAG-WHSC1 (Wolf-Hirschhorn syndrome candidate-1, FLAG-tagged) (human, UniProt O96028 1-1365).
T1 construct: Expressed in 293T cells by transfection; also called FLAG-tagged WHSC1; pCAGGS-n3FH-WHSC1; not shown: 3×FLAG tag from the pCAGGS-n3FH / n3FC vector
T1 sequence: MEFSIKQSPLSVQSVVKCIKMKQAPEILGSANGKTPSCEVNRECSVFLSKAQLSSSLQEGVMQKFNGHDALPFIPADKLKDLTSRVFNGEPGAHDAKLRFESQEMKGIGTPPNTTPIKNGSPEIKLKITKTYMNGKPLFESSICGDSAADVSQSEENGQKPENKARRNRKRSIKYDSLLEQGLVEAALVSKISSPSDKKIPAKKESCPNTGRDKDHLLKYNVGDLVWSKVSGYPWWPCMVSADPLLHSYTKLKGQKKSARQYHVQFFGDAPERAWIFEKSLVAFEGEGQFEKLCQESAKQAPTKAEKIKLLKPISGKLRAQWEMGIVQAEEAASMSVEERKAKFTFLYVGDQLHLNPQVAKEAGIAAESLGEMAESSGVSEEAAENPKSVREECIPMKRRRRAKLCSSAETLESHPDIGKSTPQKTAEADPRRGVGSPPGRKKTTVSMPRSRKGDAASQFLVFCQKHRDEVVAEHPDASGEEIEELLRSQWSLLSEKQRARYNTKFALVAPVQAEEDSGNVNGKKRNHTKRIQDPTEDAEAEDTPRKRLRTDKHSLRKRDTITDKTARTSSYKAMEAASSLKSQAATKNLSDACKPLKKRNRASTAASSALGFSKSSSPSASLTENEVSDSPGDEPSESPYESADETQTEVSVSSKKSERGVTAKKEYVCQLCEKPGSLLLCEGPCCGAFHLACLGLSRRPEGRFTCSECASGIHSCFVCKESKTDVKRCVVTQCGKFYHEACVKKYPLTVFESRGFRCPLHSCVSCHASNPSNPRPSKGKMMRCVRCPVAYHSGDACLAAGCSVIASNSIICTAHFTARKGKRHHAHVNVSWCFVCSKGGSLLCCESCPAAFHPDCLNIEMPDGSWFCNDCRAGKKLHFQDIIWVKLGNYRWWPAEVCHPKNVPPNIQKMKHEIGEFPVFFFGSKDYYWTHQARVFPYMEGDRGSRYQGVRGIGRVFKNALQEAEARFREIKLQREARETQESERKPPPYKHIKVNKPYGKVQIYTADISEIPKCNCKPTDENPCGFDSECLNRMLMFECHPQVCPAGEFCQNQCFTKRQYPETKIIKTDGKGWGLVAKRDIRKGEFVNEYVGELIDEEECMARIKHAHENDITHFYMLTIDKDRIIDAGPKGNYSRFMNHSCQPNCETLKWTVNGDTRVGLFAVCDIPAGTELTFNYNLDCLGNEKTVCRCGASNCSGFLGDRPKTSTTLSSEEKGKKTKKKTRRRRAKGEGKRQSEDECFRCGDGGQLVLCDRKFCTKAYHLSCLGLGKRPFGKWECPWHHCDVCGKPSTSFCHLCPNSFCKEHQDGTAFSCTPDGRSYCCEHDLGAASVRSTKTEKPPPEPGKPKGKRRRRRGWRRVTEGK
As to the kind of experiment: anti-HA immunoprecipitation from nuclear and cytoplasmic fractions of 293T cells co-transfected with HA-beta-catenin and 3×FLAG-WHSC1, then immunoblot. The method, then: [FIG. 5B-D](B) Silver staining pattern of interacting proteins with WHSC1. pCAGGS-n3FH-WHSC1 vectors were transfected into 293T cells. After 48 h, interacting protein partners of WHSC1 were enriched by anti-FLAG immunoprecipitation, separated by SDS-PAGE and silver stained. The different bands compared with a control lane were cut out and identified by mass spectrometry. Western blot was performed to confirm the expression of FLAG-WHSC1 using anti-FLAG antibody. (C) Immunoprecipitants from lysates of 293T cells using anti-FLAG M2 agarose (SIGMA) were immunoblotted with anti-FLAG (WHSC1), IQGAP1, TIAM1, AKT2 and beta-catenin antibodies. (D). HA-beta-catenin and 3×FLAG-WHSC1 vectores were transfected into 293T cells, and cell lysates were fractionated by NE-PER nuclear and cytoplasmic ex-traction kit (Thermo Sciecntific). Immunoprecipitants from fractionated lysates using anti-HA agarose (SIGMA) were immunoblotted with anti-FLAG and HA antibodies. UHRF1 was used as a marker of a nuclear protein, and Rho A was used a marker of a cytoplasmic protein.

In data set [2] the target is T2, beta-catenin.
T2 chain: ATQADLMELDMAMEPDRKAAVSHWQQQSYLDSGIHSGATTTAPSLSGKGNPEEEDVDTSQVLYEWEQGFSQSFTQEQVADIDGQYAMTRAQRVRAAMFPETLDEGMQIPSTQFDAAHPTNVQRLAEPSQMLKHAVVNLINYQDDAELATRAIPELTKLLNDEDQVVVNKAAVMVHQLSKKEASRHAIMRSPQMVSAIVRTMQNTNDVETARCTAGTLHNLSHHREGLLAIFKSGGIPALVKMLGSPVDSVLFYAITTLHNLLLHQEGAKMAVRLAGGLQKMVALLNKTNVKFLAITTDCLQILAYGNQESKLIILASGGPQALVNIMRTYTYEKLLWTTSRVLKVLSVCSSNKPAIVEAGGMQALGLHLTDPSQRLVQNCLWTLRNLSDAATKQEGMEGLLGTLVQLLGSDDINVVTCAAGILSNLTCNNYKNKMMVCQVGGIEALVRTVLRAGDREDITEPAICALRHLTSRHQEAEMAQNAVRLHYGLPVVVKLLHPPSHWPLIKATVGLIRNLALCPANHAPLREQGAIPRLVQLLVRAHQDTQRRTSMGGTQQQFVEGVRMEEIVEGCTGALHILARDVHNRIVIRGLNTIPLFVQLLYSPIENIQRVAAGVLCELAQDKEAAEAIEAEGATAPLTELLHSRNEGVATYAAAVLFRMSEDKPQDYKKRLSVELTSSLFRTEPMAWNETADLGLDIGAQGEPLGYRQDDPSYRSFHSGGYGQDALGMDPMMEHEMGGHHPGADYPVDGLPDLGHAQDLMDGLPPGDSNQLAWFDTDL

B1: HA-beta-catenin (other)
chain: MATQADLMELDMAMEPDRKAAVSHWQQQSYLDSGIHSGATTTAPSLSGKGNPEEEDVDTSQVLYEWEQGFSQSFTQEQVADIDGQYAMTRAQRVRAAMFPETLDEGMQIPSTQFDAAHPTNVQRLAEPSQMLKHAVVNLINYQDDAELATRAIPELTKLLNDEDQVVVNKAAVMVHQLSKKEASRHAIMRSPQMVSAIVRTMQNTNDVETARCTAGTLHNLSHHREGLLAIFKSGGIPALVKMLGSPVDSVLFYAITTLHNLLLHQEGAKMAVRLAGGLQKMVALLNKTNVKFLAITTDCLQILAYGNQESKLIILASGGPQALVNIMRTYTYEKLLWTTSRVLKVLSVCSSNKPAIVEAGGMQALGLHLTDPSQRLVQNCLWTLRNLSDAATKQEGMEGLLGTLVQLLGSDDINVVTCAAGILSNLTCNNYKNKMMVCQVGGIEALVRTVLRAGDREDITEPAICALRHLTSRHQEAEMAQNAVRLHYGLPVVVKLLHPPSHWPLIKATVGLIRNLALCPANHAPLREQGAIPRLVQLLVRAHQDTQRRTSMGGTQQQFVEGVRMEEIVEGCTGALHILARDVHNRIVIRGLNTIPLFVQLLYSPIENIQRVAAGVLCELAQDKEAAEAIEAEGATAPLTELLHSRNEGVATYAAAVLFRMSEDKPQDYKKRLSVELTSSLFRTEPMAWNETADLGLDIGAQGEPLGYRQDDPSYRSFHSGGYGQDALGMDPMMEHEMGGHHPGADYPVDGLPDLGHAQDLMDGLPPGDSNQLAWFDTDL
notes: Co-transfected with 3×FLAG-WHSC1 into 293T cells and precipitated with anti-HA agarose from nuclear and cytoplasmic fractions; also called HA-tagged beta-catenin; not shown: HA tag
For the molecule B1, the binding result in data set [1] was “binds”.

B2: WHSC1 (expressed from the pCAGGS-WHSC1 vector) (protein)
chain: MEFSIKQSPLSVQSVVKCIKMKQAPEILGSANGKTPSCEVNRECSVFLSKAQLSSSLQEGVMQKFNGHDALPFIPADKLKDLTSRVFNGEPGAHDAKLRFESQEMKGIGTPPNTTPIKNGSPEIKLKITKTYMNGKPLFESSICGDSAADVSQSEENGQKPENKARRNRKRSIKYDSLLEQGLVEAALVSKISSPSDKKIPAKKESCPNTGRDKDHLLKYNVGDLVWSKVSGYPWWPCMVSADPLLHSYTKLKGQKKSARQYHVQFFGDAPERAWIFEKSLVAFEGEGQFEKLCQESAKQAPTKAEKIKLLKPISGKLRAQWEMGIVQAEEAASMSVEERKAKFTFLYVGDQLHLNPQVAKEAGIAAESLGEMAESSGVSEEAAENPKSVREECIPMKRRRRAKLCSSAETLESHPDIGKSTPQKTAEADPRRGVGSPPGRKKTTVSMPRSRKGDAASQFLVFCQKHRDEVVAEHPDASGEEIEELLRSQWSLLSEKQRARYNTKFALVAPVQAEEDSGNVNGKKRNHTKRIQDPTEDAEAEDTPRKRLRTDKHSLRKRDTITDKTARTSSYKAMEAASSLKSQAATKNLSDACKPLKKRNRASTAASSALGFSKSSSPSASLTENEVSDSPGDEPSESPYESADETQTEVSVSSKKSERGVTAKKEYVCQLCEKPGSLLLCEGPCCGAFHLACLGLSRRPEGRFTCSECASGIHSCFVCKESKTDVKRCVVTQCGKFYHEACVKKYPLTVFESRGFRCPLHSCVSCHASNPSNPRPSKGKMMRCVRCPVAYHSGDACLAAGCSVIASNSIICTAHFTARKGKRHHAHVNVSWCFVCSKGGSLLCCESCPAAFHPDCLNIEMPDGSWFCNDCRAGKKLHFQDIIWVKLGNYRWWPAEVCHPKNVPPNIQKMKHEIGEFPVFFFGSKDYYWTHQARVFPYMEGDRGSRYQGVRGIGRVFKNALQEAEARFREIKLQREARETQESERKPPPYKHIKVNKPYGKVQIYTADISEIPKCNCKPTDENPCGFDSECLNRMLMFECHPQVCPAGEFCQNQCFTKRQYPETKIIKTDGKGWGLVAKRDIRKGEFVNEYVGELIDEEECMARIKHAHENDITHFYMLTIDKDRIIDAGPKGNYSRFMNHSCQPNCETLKWTVNGDTRVGLFAVCDIPAGTELTFNYNLDCLGNEKTVCRCGASNCSGFLGDRPKTSTTLSSEEKGKKTKKKTRRRRAKGEGKRQSEDECFRCGDGGQLVLCDRKFCTKAYHLSCLGLGKRPFGKWECPWHHCDVCGKPSTSFCHLCPNSFCKEHQDGTAFSCTPDGRSYCCEHDLGAASVRSTKTEKPPPEPGKPKGKRRRRRGWRRVTEGK
For B2, the “in vitro methyltransferase assay” value in data set [2] is given as “no positive signals were observed (data not shown)”.
